Tests used:
hen egg lysozyme (hen) = hen egg lysozyme (hen) (UniProt P00698); assay: ELISA on HEL-coated plate, detection via myc tag (9e10) and anti mouse IgG-HRP
[1] = molecular target: human TNFR1 on HeLa cells (human) (UniProt P19438); assay: cell-based or functional assay
Chain of human TNFR1 on HeLa cells (human) (P19438 30-455): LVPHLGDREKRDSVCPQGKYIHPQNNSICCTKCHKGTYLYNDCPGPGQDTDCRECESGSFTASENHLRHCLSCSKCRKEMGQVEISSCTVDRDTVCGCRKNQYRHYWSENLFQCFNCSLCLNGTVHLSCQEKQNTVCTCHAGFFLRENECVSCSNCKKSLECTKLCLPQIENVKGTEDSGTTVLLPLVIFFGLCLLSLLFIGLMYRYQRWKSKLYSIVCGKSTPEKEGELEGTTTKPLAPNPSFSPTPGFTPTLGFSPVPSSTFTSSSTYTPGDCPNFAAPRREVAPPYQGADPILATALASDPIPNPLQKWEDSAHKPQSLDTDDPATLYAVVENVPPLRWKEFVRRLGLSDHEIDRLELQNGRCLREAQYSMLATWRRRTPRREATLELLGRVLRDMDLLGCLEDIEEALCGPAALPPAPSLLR

Chain of hen egg lysozyme (hen) (P00698 19-147): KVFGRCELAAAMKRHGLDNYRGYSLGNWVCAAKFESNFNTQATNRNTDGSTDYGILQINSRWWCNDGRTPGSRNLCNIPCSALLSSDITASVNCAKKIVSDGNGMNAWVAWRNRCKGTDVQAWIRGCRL

B1: VH CH/VH CK dual specific Fab like fragment (HEL4 CH / TAR2-5 CK) (bispecific antibody, from a related filing, V domains shown)
V domain 1: EVQLLESGGGLVQPGGSLRLSCAASGFRISDEDMGWVRQAPGKGLEWVSSIYGPSGSTYYADSVKGRFTISRDNSKNTLYLQMNSLRAEDTAVYYCASALEPLSEPLGFWGQGTLVTVSS
V domain 2: EVQLLESGGGLVQPGGSLRLSCAASGFTFDLYNMFWVRQAPGKGLEWVSFISQTGRLTWYADSVKGRFTISRDNSKNTLYLQMNSLRAEDTAVYYCAKTLEDFDYWGQGTLVTVSS
modifications: left off: a dimerising Fc or GST; small tags and cut ends
- ELISA signal (hen egg lysozyme (hen)): 0.154

B2: TAR2h-10-55 (protein)
chain: EVQLLESGGGLVQPGGSLRLSCAASGFPFEWYWMGWVRQAPGKGLEWVSAISGSGDSTYYADSVKGRFTISRDNSKNTLYQQMNSLRAEDAAVYYCAKVKLGGGPNFGYRGQGTLVTVSS
- HeLa IL-8 Cell Assay, Activity (IC50) [1]: 20 nM

Source: patent publication US20060002935A1
